Test results published in article PMC5270677.

Target: Quiescin-sulfhydryl oxidase (QSOX), recombinant human (human) (UniProt O00391)
Assay: SPR; Biacore 3000; […]; 30 ul/min in PBS, 0.05% Tween 20, 3 mM EDTA at 25°C; 1:1 Langmuir model; […]

Chain of unfolded N-terminal region of human PrP, HuPrP(23-145) (P04156 23-145): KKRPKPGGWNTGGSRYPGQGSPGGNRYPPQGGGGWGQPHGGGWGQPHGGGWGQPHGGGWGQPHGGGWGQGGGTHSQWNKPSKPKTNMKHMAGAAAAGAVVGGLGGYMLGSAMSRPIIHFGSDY
Chain of Quiescin-sulfhydryl oxidase (QSOX), recombinant human (human) (O00391 30-709): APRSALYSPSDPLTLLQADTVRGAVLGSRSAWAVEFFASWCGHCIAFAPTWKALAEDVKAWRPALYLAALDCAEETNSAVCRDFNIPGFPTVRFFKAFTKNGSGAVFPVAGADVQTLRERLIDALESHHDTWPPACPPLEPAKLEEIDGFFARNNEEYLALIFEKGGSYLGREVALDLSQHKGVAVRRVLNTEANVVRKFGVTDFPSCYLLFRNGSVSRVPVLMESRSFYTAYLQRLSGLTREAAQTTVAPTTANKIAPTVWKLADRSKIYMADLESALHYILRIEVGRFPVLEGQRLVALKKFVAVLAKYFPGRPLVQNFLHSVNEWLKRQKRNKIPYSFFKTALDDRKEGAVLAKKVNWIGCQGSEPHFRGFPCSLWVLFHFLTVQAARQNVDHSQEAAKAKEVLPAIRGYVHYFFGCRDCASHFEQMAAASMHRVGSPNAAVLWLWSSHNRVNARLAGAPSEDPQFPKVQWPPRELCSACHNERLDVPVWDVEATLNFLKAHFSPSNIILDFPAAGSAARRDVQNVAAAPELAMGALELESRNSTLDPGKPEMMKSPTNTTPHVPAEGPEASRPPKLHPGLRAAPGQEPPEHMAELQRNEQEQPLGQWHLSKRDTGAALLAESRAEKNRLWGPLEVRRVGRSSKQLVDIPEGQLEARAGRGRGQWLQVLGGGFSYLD

unfolded N-terminal region of human PrP, HuPrP(23-145) (from UniProt P04156 23-145) (domain or fragment)
Kd: 3.6 nM | koff: 4.78e-05 s⁻¹ | kon: 13200 M⁻¹ s⁻¹
